Reference: patent US20130273053

Biological target: ST-pro-factor D-His (UniProt P00746)
Sequence (P00746 21-253): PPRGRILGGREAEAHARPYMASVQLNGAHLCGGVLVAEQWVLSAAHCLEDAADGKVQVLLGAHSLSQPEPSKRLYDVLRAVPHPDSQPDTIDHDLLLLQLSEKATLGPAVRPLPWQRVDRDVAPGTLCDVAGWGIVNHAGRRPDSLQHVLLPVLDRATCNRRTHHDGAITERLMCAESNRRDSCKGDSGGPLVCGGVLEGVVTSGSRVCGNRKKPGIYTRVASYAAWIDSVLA

B1: recombinant MASP-1 (CCP1-CCP2-SP) fragment (enzyme, part only; not given: tags; R504Q status unclear)
chain, part: GNECPELQPPVHGKIEPSQAKYFFKDQVLVSCDTGYKVLKDNVEMDTFQIECLKDGTWSNKIPTCKIVDCRAPGELEHGLITFSTRNNLTTYKSEIKYSCQEPYYKMLNNNTGIYTCSAQGVWMNKVLGRSLPTCLPVCGLPKFSRKLMARIFNGRPAQKGTTPWIAMLSHLNGQPFCGGSLLGSSWIVTAAHCLHQSLDPKDPTLRDSDLLSPSDFKIILGKHWRLRSDENEQHLGVKHTTLHPKYDPNTFENDVALVELLESPVLNAFVMPICLPEGPQQEGAMVIVSGWGKQFLQRFPETLMEIEIPIVDHSTCQKAYAPLKKKVTRDMICAGEKEGGKDACSGDSGGPMVTLNRERGQWYLVGTVSWGDDCGKKDRYGVYSYIHHNKDWIQRVTGVRN
cleavage of pro-factor D substrate, Western blot: only full length MASP-3 (lane 2) and the MASP-1 CCP1-CCP2-SP) fragment (lane 5) cleaved ST-pro-factor D-His6
